Source: the Human Domainome abundance scans (Beltran et al. 2025)

B1: Tyrosine-protein kinase Lck, residues 63 to 120; numbered along this chain, P06239 (parent)
chain: DNLVIALHSYEPSHDGDLGFEKGEQLRILEQSGEWWKAQSLTTGQEGFIPFNFVAKAN

Variants of: B1
Assay: abundance fitness (aPCA) (normalised: wild type 0, dead -1); higher = more abundant; growth selection in yeast, the domain comes from the species named
Conditions: Homo sapiens

Abundance fitness: each site, then its substitutions
D17: N -0.177, T -0.255, V -0.111, L -0.116, W -0.083, P -0.762, C -0.022, G -0.042, R -0.009, K 0.051, E 0.063, A -0.006, S -0.045, F -0.229, H 0.011, M -0.022
D15: T -0.124, W -0.461, H -0.071, F -0.148, C -0.196, K 0.111, L -0.106, R -0.053, I -0.225, Q -0.02, A -0.046, G -0.196, P -0.075, V -0.273, M -0.225, Y -0.071
Q25: Y -0.047, K 0.09, I -0.181, T 0.078, V -0.017, P -0.276, A -0.165, N 0.069, H -0.143, D -0.357, C -0.096, W -0.169, E -0.021, M 0.022, S -0.053
F20: P -0.818, S -0.949, M -0.293, T -0.406, I -0.47, C -0.541, H -0.836, A -0.52, W -1.04, Q -0.825, K -0.705, N -0.7, Y -0.756, L -0.411, R -0.976, D -0.845, V -0.222, G -0.921
G19: V -0.47, F -0.567, T -0.375, P -0.16, M -0.31, I -0.538, N -0.397, E -0.393, D -0.648, Q -0.256, C -0.16, H -0.299, A -0.039, W -0.823, Y -0.55, L -0.604, R -0.142, K -0.108
G16: M -0.259, A -0.366, C -0.241, H -0.114, Y -0.218, S -0.174, K -0.362, V -0.328, F -0.309, P -1.03, I -0.322, T -0.152, E -0.247
E30: V -0.17, G -0.21, L -0.601, A -0.115, I -0.586, K -0.248, R -0.285, D -0.087, M -0.278, C -0.265, Y -0.362, T -0.293, P -0.752, H -0.247, W -0.503, F -0.45, Q -0.161
L29: Q -0.401, S -0.44, F -0.527, W -0.87, P -1.05, A -0.645, Y -0.227, G -0.734, M -0.315, T -0.283, K -0.325, R -0.591, H -0.184, D -0.852, C -0.441, I -0.339
E24: G -0.725, Q -0.385, T -0.754, L -0.999, H -0.774, D -0.095, R -0.902, F -0.997, W -0.704, M -0.673, I -0.758, K -0.82, Y -0.829, N -0.608, S -0.506, P -0.891, C -0.628, A -0.357, V -0.835
L26: Y -0.929, E -0.596, I -0.648, F -0.28, V -0.781, A -0.987, N -0.787, W -0.864, G -0.704, C -1.28, M -0.126, R -0.726, Q -0.572, H -0.728, K -0.919, S -0.84, P -0.909
K22: T -0.187, L -0.625, F -0.603, Q -0.371, A -0.174, M -0.514, I -0.526, W -0.928, G -0.674, C -0.303, P -0.801, R -0.252, H -0.593, N -0.777
L18: Q -0.876, M -0.295, W -0.978, S -0.884, Y -0.725, K -0.946, R -0.86, I -0.176, D -0.779, T -0.714, F -0.449, C -0.898, V -0.441, G -0.717, E -0.757, N -0.722, H -0.732, A -0.591
E21: V 0.022, Q 0.007, L -0.11, T -0.129, P -0.914, G -0.349, F -0.515, D -0.205, N -0.248, M -0.134, W -0.481, A -0.062, R -0.052, S -0.042, H -0.001, Y -0.415
R27: K -0.154, F -0.448, T -0.24, C -0.208, I -0.162, M -0.309, L -0.056, N -0.471, S -0.465, G -0.881, V -0.062, E -0.022, D -0.421, H -0.049, Y -0.193, P -0.914, W -0.44
G33: K -0.545, F -0.853, H -0.633, A -0.398, P -0.544, Q -0.767, D -0.467, W -0.929, N -0.145, Y -0.922, S -0.166, L -0.812, V -0.881, C -0.491, E -0.491
S32: K 0.06, A -0.067, L -0.377, N 0.101, G -0.071, I -0.226, Q 0.182, T 0.05, H -0.302, Y -0.082, R 0.012, W -0.455, D -0.07, P -0.407, E 0.182
Q31: P -0.235, W -0.161, I -0.552, V -0.354, F -0.5, Y -0.234, A 0.032, E 0.025, R 0.054, C -0.097, K 0.003, L -0.707, H -0.301, D -0.011, T -0.291
H14: K 0.072, V -0.104, P -0.793, N 0.12, R 0.039, I -0.118, L -0.267, Y -0.165, G -0.059, Q -0.079, S -0.031, W -0.328
G23: K -0.792, M -0.792, D -0.477, W -0.648, Q -0.903, C -0.829, H -0.397, V -1.04, N -0.066, I -0.79, T -0.917, E -0.823, F -0.573, Y -0.655, L -0.832, P -1.01, S -0.635
I28: A -0.554, Y -0.459, S -0.645, Q -0.924, L -0.074, C -0.658, W -0.941, G -0.754, K -0.903, D -0.833, M -0.662, N -0.585, R -0.874, F -0.977, T -0.683, H -1.03, V -0.108, E -0.969, P -0.885
E34: C -0.276, G -0.13, I -0.142, Q -0.149, F -0.138, A -0.065, M -0.262, P -0.183, H -0.205, N -0.203, L -0.225
